This experiment concerns hypox rats. Briefly: Biological assay for growth-promoting activity: net weight gain of hypophysectomized rats. The format is in vivo, rat. Conditions: 5 ug/day pST alone, day 0 to 4 and day 7 to 10, versus untreated rats, FIG. 4. The protocol: Hypox rats are injected subcutaneously with pST (5 ug/day) with or without antibody (2 mg/day) for 5 consecutive days and the net weight gain is recorded. Immune antibodies are prepared from two pigs that had been immunized with pST (54-95) and the control antibody is prepared from a pooled sera of non-immunized pigs. *,p<0.05; **,p<0.01.
In a study similar to that shown in FIG. 3, except antibody is injected at a dose of 0.5 mg/day and for a longer period of time. *,p<0.05; **,p<0.01; ***,p<0.001.
Hypophysectomized female Sprague-Dawley rats, 21 days of age and weighing 50-64 g, are obtained from Taconic Farm, Germantown, N.Y. and used to assay for Growth Hormone (GH). Female crossbred swine (Duroc x Yorkshire x Hampshire), 3-5 months of age, weighing 30-50 kg, are obtained from the breeding colony of American Cyanamid Co., Princeton, N.J. and used for the production of antibodies.
Hypophysectomized rats are randomly allocated to groups of eight. Antibody mixed with 5 ug pST at room temperature for 1 hour is administered subcutaneously in the neck region of experimental rats. All animals are treated daily for various periods of time and their growth is recorded as net weight gain. […]
The growth enhancing effect of these antibodies are evaluated in hypox rats. […] Net weight gains are recorded. […]

B1: pST: single chain polypeptide of 191 amino acids, growth hormone native to swine (protein, UniProt P01248 27-216, looked up)
Somatotropin: FPAMPLSSLFANAVLRAQHLHQLAADTYKEFERAYIPEGQRYSIQNAQAAFCFSETIPAPTGKDEAQQRSDVELLRFSLLLIQSWLGPVQFLSRVFTNSLVFGTSDRVYEKLKDLEEGIQALMRELEDGSPRAGQILKQTYDKFDTNLRSDDALLKNYGLLSCFKKDLHKAETYLRVMKCRRFVESSCAF
B1: the “growth (net weight gain)” value is listed as “marked growth as compared to untreated rats”.
